Experimental data: US20150183884A1 (NATIONAL HEALTH RESEARCH INSTITUTES, published 2015)

How the values were obtained:
[1] = biological target: ENO1 deletion mutant Δ1-297 (human) (UniProt P06733); assay: ELISA on coated mutant protein, 10 microgram EN10 mAb
[2] = biological target: ENO1 deletion mutant Δ1-189 (human) (UniProt P06733); assay: as above
[3] = biological target: T1, BSA (bovine, UniProt P02769); assay: ELISA, BSA as background
T1 construct: also called BSA background
Text: This reaction solution was subjected to 2% agarose gel electrophoresis to analyze the reaction products. Reaction products with the correct molecular weights were ligated into a pCR 2.1-TOPO vector (manufactured by Invitrogen) for subcloning in accordance with the attached instruction manual. M13 forward (5′-[…]-3′(SEQ ID NO: 11) and M13 reverse (5′-CAG GAAACA GCT ATG AC-3′ (SEQ ID NO: 12)) primers were then used to determine the nucleotide sequence. Every mutation clone with the correct sequences was digested with restriction enzymes BamHI and XhoI, and the digestion products were subjected to 2% agarose gel electrophoresis. The insertion fragment of each mutant was cut from the agarose gel and purified with a Gene Clean Kit in accordance with the attached instruction manual provided by the manufacturer (BIO101). The BamHI and XhoI DNA fragment of each mutant was ligated to the BamHI and XhoI sites of an E. coli expression vector pTRC His A (Invitrogen). The resulting plasmid was transformed into E. coli BL21 Rosseta. The ENO1 mutation protein was expressed in E. coli by IPTG induction and purified by Ni-agarose in accordance with the attached instruction manual provided by the manufacturer (Qiagen) after the bacteria pellet was sonicated. The purity of each mutant was analyzed by 12% SDS PAGE. […] The binding affinity was determined by the readings of OD 405. […]

[4] = biological target: ENO1 deletion Δ297-434 mutant (human) (UniProt P06733); assay: ELISA on coated ENO1 protein or mutant, 10 microgram EN10 mAb
Sequence of ENO1 deletion Δ297-434 mutant (human) (P06733 1-296, stated change not applied): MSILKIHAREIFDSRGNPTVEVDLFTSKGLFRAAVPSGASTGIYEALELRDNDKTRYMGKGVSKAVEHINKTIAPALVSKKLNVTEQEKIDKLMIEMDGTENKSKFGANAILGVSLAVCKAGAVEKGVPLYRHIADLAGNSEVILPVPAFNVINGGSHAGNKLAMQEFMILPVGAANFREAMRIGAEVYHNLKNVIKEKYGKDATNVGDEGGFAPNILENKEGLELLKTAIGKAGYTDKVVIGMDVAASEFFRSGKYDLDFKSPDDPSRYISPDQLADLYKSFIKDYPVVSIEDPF

T1 sequence (P02769 25-607 limits assumed): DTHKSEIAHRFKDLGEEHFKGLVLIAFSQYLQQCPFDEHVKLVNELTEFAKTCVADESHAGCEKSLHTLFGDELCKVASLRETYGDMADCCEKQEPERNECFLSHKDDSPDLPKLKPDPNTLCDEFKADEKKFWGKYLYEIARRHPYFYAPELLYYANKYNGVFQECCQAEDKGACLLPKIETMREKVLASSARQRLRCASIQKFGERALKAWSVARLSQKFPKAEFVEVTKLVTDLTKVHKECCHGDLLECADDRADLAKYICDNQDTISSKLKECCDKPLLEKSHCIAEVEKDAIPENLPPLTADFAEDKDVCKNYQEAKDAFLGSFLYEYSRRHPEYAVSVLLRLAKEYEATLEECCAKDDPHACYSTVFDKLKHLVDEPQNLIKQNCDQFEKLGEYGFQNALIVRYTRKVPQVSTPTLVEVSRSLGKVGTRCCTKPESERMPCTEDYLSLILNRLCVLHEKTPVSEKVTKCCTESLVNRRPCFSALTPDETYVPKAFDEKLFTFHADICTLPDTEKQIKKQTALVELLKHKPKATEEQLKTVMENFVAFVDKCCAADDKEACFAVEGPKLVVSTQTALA

OD405 [1]: 1.56 OD405
percent of the OD405 of wild type ENO1 [1]: 39%
OD405 [2]: 1.43 OD405
percent of the OD405 of wild type ENO1 [2]: 42%
OD450 [4]: 0.47
B1: EN10 mAb (antibody, V domains shown)
VH: EVQLQQSGPELVKPGASVKMSCKASGYTFTSCVMNWVKQKPGQGLEWIGYINPYNDGTKYNEKFKGKATLTSDKSSSTAYMELSSLTSEDSAVYYCAREGFYYGNFDNWGQGTTLTVSS
VL: DIQMTQSPASLSASVGETVTITCRASENIYSYLTWYQQKQGKSPQLLVYNAKTLPEGVPSRFSGSGSGTQFSLKINSLQPEDFGSYYCQHHYGTPYTFGGGTKLEITR
notes: also called clone 10; anti-human ENO1 antibody clones 10
binding result [3]: no binding (tested: 10 microgram EN10 mAb (amount))
